How the values were obtained:
[1] = biological target: T1, mDC cell surface SIRPα (human, UniProt P78324 31-504); test: FACS binding; Donor #298
[2] = biological target: T2, cell-surface SIRPα (mDC) (human, UniProt P78324 31-504); test: FACS blocking of CD47/SIRPα; Donor #298
[3] = biological target: T2, cell-surface SIRPα (mDC); test: FACS blocking of CD47/SIRPα; Donor #296
[4] = biological target: T1, mDC cell surface SIRPα; test: FACS binding; Donor #296

T2 sequence (P78324 31-504): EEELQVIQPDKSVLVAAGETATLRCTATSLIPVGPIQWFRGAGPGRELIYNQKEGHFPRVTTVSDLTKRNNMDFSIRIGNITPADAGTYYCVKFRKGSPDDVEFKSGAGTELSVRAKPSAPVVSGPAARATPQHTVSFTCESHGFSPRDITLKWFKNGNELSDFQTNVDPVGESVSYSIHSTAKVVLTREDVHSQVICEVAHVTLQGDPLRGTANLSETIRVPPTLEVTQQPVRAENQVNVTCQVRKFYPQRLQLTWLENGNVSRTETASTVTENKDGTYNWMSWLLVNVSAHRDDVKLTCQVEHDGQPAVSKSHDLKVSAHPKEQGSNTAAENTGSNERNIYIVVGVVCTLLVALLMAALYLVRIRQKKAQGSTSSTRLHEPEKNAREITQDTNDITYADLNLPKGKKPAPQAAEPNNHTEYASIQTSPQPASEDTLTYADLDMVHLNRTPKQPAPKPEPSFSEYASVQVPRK
T1 sequence (P78324 31-504): as above

EC50 [1]: 1.27 nM
IC50 [2]: 1.77 nM
IC50 [3]: 1.25 nM
EC50 [4]: 0.768 nM
B1: OSE-172 (antibody, V domains shown)
VH: EVQLVQSGAEVKKPGESLRISCKASGYSFTSYWVHWVRQMPGKGLEWMGNIDPSDSDTHYSPSFQGHVTLSVDKSISTAYLQLSSLKASDTAMYYCVRGGTGTLAYFAYWGQGTLVTVSS
VL: DVVMTQSPLSLPVTLGQPASISCRSSQSLVHSYGNTYLYWFQQRPGQSPRLLIYRVSNRFSGVPDRFSGSGSGTDFTLKISRVEAEDVGVYYCFQGTHVPYTFGGGTKVEIKR
